Measurements: patent publication CN114369161A (HEFEN TIANKPORT IMMUNOLOGICAL DRUG CO LTD, dated 2022)

Assays:
[1] = molecular target: T1, MICA胞外区α3结构域Fc融合蛋白(MICAα3-Fc); experiment: ELISA (legend of Fig. 2)
T1 construct: also called MICAα3-Fc融合蛋白; MICA α3结构域

MICA (CHO-K1-MICA细胞表达) = molecular target: T2, MICA (CHO-K1-MICA细胞表达) (Homo sapiens (Human), UniProt Q29983 24-383); experiment: flow cytometry (legend of Fig. 3)
T2 construct: also called MICA蛋白
T2 sequence: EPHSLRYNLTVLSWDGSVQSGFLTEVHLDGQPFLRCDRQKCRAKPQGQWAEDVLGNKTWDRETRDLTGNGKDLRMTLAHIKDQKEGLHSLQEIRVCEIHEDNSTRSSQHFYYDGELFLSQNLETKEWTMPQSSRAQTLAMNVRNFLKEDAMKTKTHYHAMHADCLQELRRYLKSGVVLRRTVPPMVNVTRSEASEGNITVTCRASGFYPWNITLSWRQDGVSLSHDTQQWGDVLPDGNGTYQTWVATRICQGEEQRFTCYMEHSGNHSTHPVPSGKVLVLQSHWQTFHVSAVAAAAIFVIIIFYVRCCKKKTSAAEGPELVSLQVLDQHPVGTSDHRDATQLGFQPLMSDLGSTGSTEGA

MICB (CHO-K1-MICB细胞表达) = molecular target: T3, MICB (CHO-K1-MICB细胞表达) (Homo sapiens (Human), UniProt Q29980 23-382); experiment: flow cytometry (legend of Fig. 4)
T3 chain: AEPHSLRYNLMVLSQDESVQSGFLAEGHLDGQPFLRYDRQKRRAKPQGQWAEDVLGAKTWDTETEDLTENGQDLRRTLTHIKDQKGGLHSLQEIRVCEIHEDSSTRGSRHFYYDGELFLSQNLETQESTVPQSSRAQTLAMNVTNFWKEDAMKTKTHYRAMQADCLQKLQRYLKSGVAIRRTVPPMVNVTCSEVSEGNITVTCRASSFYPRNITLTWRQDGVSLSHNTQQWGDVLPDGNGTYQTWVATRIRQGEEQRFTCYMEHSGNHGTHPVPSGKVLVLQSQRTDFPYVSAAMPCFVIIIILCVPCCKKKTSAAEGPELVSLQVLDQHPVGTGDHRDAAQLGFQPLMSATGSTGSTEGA

重组MICA胞外区Fc融合蛋白(MICA-Fc) = molecular target: T4, 重组MICA胞外区Fc融合蛋白(MICA-Fc) (human); experiment: ELISA, MICA-Fc coated at 1 μg/mL, HRP anti-mouse secondary
T4 construct: also called MICA-Fc融合蛋白; 人MICA

T1 sequence (chain, as listed by the source limits assumed): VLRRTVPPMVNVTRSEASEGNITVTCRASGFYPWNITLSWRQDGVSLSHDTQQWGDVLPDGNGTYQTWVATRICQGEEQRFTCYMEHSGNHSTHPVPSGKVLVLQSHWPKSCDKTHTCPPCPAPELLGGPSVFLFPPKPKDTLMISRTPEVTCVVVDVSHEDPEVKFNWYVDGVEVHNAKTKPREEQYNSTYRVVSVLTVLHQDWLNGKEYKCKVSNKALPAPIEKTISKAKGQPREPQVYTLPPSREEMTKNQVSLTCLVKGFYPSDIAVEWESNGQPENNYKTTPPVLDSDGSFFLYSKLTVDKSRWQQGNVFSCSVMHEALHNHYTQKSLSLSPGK

- binding result [1]: binds
- binding result (MICA (CHO-K1-MICA细胞表达)): binds
- binding result (MICB (CHO-K1-MICB细胞表达)): binds
- binding result (重组MICA胞外区Fc融合蛋白(MICA-Fc)): binds
B1: MICA抗体(编号为11G3) (antibody, V domains shown)
VH: QIQLVQSGPELKKPGESVKISCKASGYTFTDYGINWVKQAPGKGLKWVGWINTYTGEPINADDFKGRFALSLETSANTAYLQINNLKNEDMATYFCTRLSTVAVGAWFEYWGQGTLVTVSA
VL: DVLMTQTPLSLPVSLGDQASISCRSSQNIVHSNGNTYLEWYLQKPGQSPKLLIYKVSNRFSGVPDRFSGSGSGTDFTLKISRVEAEDLGVYYCFQGSHVPTFGGGTKLEIK
notes: also called 鼠单抗; 本发明的抗体
